# Experimental data: paper PMC10999626, “Kinetic modeling of the plasma pharmacokinetic profiles of ADAMTS13 fragment and its Fc-fusion counterpart in mice” (Frontiers in Pharmacology, 2024)
# T1: biotinylated mouse FcRn protein (mouse, UniProt Q61559 22-297, biotin (biotinylated; site not stated))
# T1 construct: neonatal Fc receptor (FcRn), mouse; also called mouse neonatal Fc-receptor; source: bought: Acro Biosystems
# T1 sequence (looked up): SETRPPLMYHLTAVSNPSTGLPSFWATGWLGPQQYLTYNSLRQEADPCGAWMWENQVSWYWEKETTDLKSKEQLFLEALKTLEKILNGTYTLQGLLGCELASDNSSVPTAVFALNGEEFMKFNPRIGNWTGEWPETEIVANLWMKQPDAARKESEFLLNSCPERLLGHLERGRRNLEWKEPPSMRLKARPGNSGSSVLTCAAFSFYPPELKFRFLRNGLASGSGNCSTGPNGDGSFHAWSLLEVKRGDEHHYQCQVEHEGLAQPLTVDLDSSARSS
# B1: MDTCS-Fc (Fc fusion)
# chain: AAGGILHLELLVAVGPDVFQAHQEDTERYVLTNLNIGAELLRDPSLGAQFRVHLVKMVILTEPEGAPNITANLTSSLLSVCGWSQTINPEDDTDPGHADLVLYITRFDLELPDGNRQVRGVTQLGGACSPTWSCLITEDTGFDLGVTIAHEIGHSFGLEHDGAPGSGCGPSGHVMASDGAAPRAGLAWSPCSRRQLLSLLSAGRARCVWDPPRPQPGSAGHPPDAQPGLYYSANEQCRVAFGPKAVACTFAREHLDMCQALSCHTDPLDQSSCSRLLVPLLDGTECGVEKWCSKGRCRSLVELTPIAAVHGRWSSWGPRSPCSRSCGGGVVTRRRQCNNPRPAFGGRACVGADLQAEMCNTQACEKTQLEFMSQQCARTDGQPLRSSPGGASFYHWGAAVPHSQGDALCRHMCRAIGESFIMKRGDSFLDGTRCMPSGPREDGTLSLCVSGSCRTFGCDGRMDSQQVWDRCQVCGGDNSTCSPRKGSFTAGRAREYVTFLTVTPNLTSVYIANHRPLFTHLAVRIGGRYVVAGKMSISPNTTYPSLLEDGRVEYRVALTEDRLPRLEEIRIWGPLQEDADIQVYRRYGEEYGNLTRPDITFTYFQPKPRQAEPKSCDKTHTCPPCPAPEFLGGPSVFLFPPKPKDTLYITREPEVTCVVVDVSQEDPEVQFNWYVDGVEVHNAKTKPREEQFNSTYRVVSVLTVLHQDWLNGKEYKCKVSNKGLPSSIEKTISKAKGQPREPQVYTLPPSQEEMTKNQVSLTCLVKGFYPSDIAVEWESNGQPENNYKTTPPVLDSDGSFFLYSRLTVDKSRWQEGNVFSCSVMHEALHNHYTQKSLSLSL
# What was measured:
# [1] = target: T1, biotinylated mouse FcRn protein; assay: BLI; biotinylated mouse FcRn (1.0 ug/mL) immobilised on streptavidin biosensor tip; MDTCS-Fc 0.625 to 20 nM in solution; 25 mM acetate, 25 mM NaH2PO4, 150 mM NaCl, 0.01% Tween-20, pH 6.0; association 5 min, dissociation 5 min; Octet Qke; biosensors without FcRn subtracted; conditions: both partners purified
# [2] = target: T1, biotinylated mouse FcRn protein; assay: as above; conditions: both partners purified; remark: listed apart in the source
binder,measurement,setting,value
B1,koff,[1],1.96e-06 s⁻¹
same,Kd,[2],0.144 ± 0.022 nM
